In article PMC7305185, “Non-cooperative 4E-BP2 folding with exchange between eIF4E-binding and binding-incompatible states tunes cap-dependent translation inhibition” (Nature Communications, 2020):

Target: T1, eukaryotic translation initiation factor 4E (eIF4E) (UniProt P06730 1-217)
T1 construct: eukaryotic translation initiation factor 4E; Expressed from a pET SUMO vector; The SUMO tag was cleaved with Ulp1 and removed on Ni-NTA; source: E. coli BL21-CodonPlus (DE3)-RIPL, purified (Ni-NTA, S75 gel filtration)
T1 sequence (P06730 whole entry): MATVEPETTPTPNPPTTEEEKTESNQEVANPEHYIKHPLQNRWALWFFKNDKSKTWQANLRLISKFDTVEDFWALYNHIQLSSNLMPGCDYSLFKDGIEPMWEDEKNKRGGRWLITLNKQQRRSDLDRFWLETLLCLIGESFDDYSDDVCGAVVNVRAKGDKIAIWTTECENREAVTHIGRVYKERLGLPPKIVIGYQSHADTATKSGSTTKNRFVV
Test: ITC; MicroCal ITC200; data collection as detailed in ref. 11; KD as mean and standard deviation of repeat samples (n = 3 for 5p-4E-BP2, n = 2 or 1 for the other variants)
Settings: both partners purified

B1: five-phospho 4E-BP2 (pT37/pT46/pS65/pT70/pS83) (natural protein, UniProt Q13542 1-120, looked up)
chain: MSSSAGSGHQPSQSRAIPTRTVAISDAAQLPHDYCTTPGGTLFSTTPGGTRIIYDRKFLLDRRNSPMAQTPPCHLPNIPGVTSPGTLIEDSKVEVNNLNNLNNHDRKHAVGDDAQFEMDI
modifications: phosphothreonine at 37, 46 and 70; phosphoserine at 65 and 83
notes: also called 5p-4E-BP2; WT 5p-4E-BP2; source: E. coli BL21-CodonPlus (DE3)-RIPL, purified (Ni-NTA, S75 gel filtration); phosphorylated with Erk2, purified again by gel filtration
Kd: 15 µM
